Data reported in patent publication US20210024615A1 (LIVERPOOL SCHOOL OF TROPICAL MEDICINE, published 2021).

Molecular target: T1, IgG1-Fc (human, UniProt P01857 104-330 = IgG part)
T1 construct: domain: Fc
Assay: ELISA

B1: Siglec-3 (receptor, UniProt P20138 18-259, looked up)
chain: DPNFWLQVQESVTVQEGLCVLVPCTFFHPIPYYDKNSPVHGYWFREGAIISRDSPVATNKLDQEVQEETQGRFRLLGDPSRNNCSLSIVDARRRDNGSYFFRMERGSTKYSYKSPQLSVHVTDLTHRPKILIPGTLEPGHSKNLTCSVSWACEQGTPPIFSWLSAAPTSLGPRTTHSSVLIITPRPQDHGTNLTCQVKFAGAGVTTERTIQLNVTYVPQNPTTGIFPGDGSGKQETRAGVVH
Q: Does B1 bind?
A: no binding

B2: Siglec-4 (receptor, UniProt P20916 20-516, looked up)
chain: GHWGAWMPSSISAFEGTCVSIPCRFDFPDELRPAVVHGVWYFNSPYPKNYPPVVFKSRTQVVHESFQGRSRLLGDLGLRNCTLLLSNVSPELGGKYYFRGDLGGYNQYTFSEHSVLDIVNTPNIVVPPEVVAGTEVEVSCMVPDNCPELRPELSWLGHEGLGEPAVLGRLREDEGTWVQVSLLHFVPTREANGHRLGCQASFPNTTLQFEGYASMDVKYPPVIVEMNSSVEAIEGSHVSLLCGADSNPPPLLTWMRDGTVLREAVAESLLLELEEVTPAEDGVYACLAENAYGQDNRTVGLSVMYAPWKPTVNGTMVAVEGETVSILCSTQSNPDPILTIFKEKQILSTVIYESELQLELPAVSPEDDGEYWCVAENQYGQRATAFNLSVEFAPVLLLESHCAAARDTVQCLCVVKSNPEPSVAFELPSRNVTVNESEREFVYSERSGLVLTSILTLRGQAQAPPRVICTARNLYGAKSLELPFQGAHRLMWAKIGP
notes: also called MAG
Q: Does B2 bind?
A: no binding

B3: CD23 (receptor, UniProt P06734 48-321, looked up)
chain: DTTQSLKQLEERAARNVSQVSKNLESHHGDQMAQKSQSTQISQELEELRAEQQRLKSQDLELSWNLNGLQADLSSFKSQELNERNEASDLLERLREEVTKLRMELQVSSGFVCNTCPEKWINFQRKCYYFGKGTKQWVHARYACDDMEGQLVSIHSPEEQDFLTKHASHTGSWIGLRNLDLKGEFIWVDGSHVDYSNWAPGEPTSRSQGEDCVMMRGSGRWNDAFCDRKLGAWVCDRLATCTPPASEGSAESMGPDSRPDPDGRLPTPSAPLHS
Q: Does B3 bind?
A: no binding

B4: dectin-1 (receptor, UniProt Q9BXN2-2 66-201, looked up)
chain: TMGVLSSPCPPNWIIYEKSCYLFSMSLNSWDGSKRQCWQLGSNLLKIDSSNELGFIVKQVSSQPDNSFWIGLSRPQTEVPWLWEDGSTFSSNLFQIRTTATQENPSPNCVWIHVSVIYDQLCSVPSYSICEKKFSM
notes: also called dec-1
Q: Does B4 bind?
A: no binding

B5: dectin-2 (receptor, UniProt Q6EIG7 46-209, looked up)
chain: TYGETGKRLSELHSYHSSLTCFSEGTKVPAWGCCPASWKSFGSSCYFISSEEKVWSKSEQNCVEMGAHLVVFNTEAEQNFIVQQLNESFSYFLGLSDPQGNNNWQWIDKTPYEKNVRFWHLGEPNHSAEQCASIVFWKPTGWGWNDVICETRRNSICEMNKIYL
notes: also called dec-2
Q: Does B5 bind?
A: no binding

B6: tetrameric human DC-SIGN (receptor, UniProt Q9NNX6 66-404, looked up)
chain: SISQEQSRQDAIYQNLTQLKAAVGELSEKSKLQEIYQELTQLKAAVGELPEKSKLQEIYQELTRLKAAVGELPEKSKLQEIYQELTWLKAAVGELPEKSKMQEIYQELTRLKAAVGELPEKSKQQEIYQELTRLKAAVGELPEKSKQQEIYQELTRLKAAVGELPEKSKQQEIYQELTQLKAAVERLCHPCPWEWTFFQGNCYFMSNSQRNWHDSITACKEVGAQLVVIKSAEEQNFLQLQSSRSNRFTWMGLSDLNQEGTWQWVDGSPLLPSFKQYWNRGEPNNVGEEDCAEFSGNGWNDDKCNLAKFWICKKSAASCSRDEEQFLSPAPATPNPPPA
Q: Does B6 bind?
A: no binding

B7: clec-4a (receptor, UniProt Q9UMR7 70-237, looked up)
chain: QKYSQLLEKKTTKELVHTTLECVKKNMPVEETAWSCCPKNWKSFSSNCYFISTESASWQDSEKDCARMEAHLLVINTQEEQDFIFQNLQEESAYFVGLSDPEGQRHWQWVDQTPYNESSTFWHPREPSDPNERCVVLNFRKSPKRWGWNDVNCLGPQRSVCEMMKIHL
notes: also called DCIR
Q: Does B7 bind?
A: no binding

B8: clec-4d (receptor, UniProt Q8WXI8 39-215, looked up)
chain: CLVTHHNFSRCKRGTGVHKLEHHAKLKCIKEKSELKSAEGSTWNCCPIDWRAFQSNCYFPLTDNKTWAESERNCSGMGAHLMTISTEAEQNFIIQFLDRRLSYFLGLRDENAKGQWRWVDQTPFNPRRVFWHKNEPDNSQGENCVVLVYNQDKWAWNDVPCNFEASRICKIPGTTLN
Q: Does B8 bind?
A: no binding

B9: MMR (receptor, UniProt P22897 19-1383, looked up)
chain: LLDTRQFLIYNEDHKRCVDAVSPSAVQTAACNQDAESQKFRWVSESQIMSVAFKLCLGVPSKTDWVAITLYACDSKSEFQKWECKNDTLLGIKGEDLFFNYGNRQEKNIMLYKGSGLWSRWKIYGTTDNLCSRGYEAMYTLLGNANGATCAFPFKFENKWYADCTSAGRSDGWLWCGTTTDYDTDKLFGYCPLKFEGSESLWNKDPLTSVSYQINSKSALTWHQARKSCQQQNAELLSITEIHEQTYLTGLTSSLTSGLWIGLNSLSFNSGWQWSDRSPFRYLNWLPGSPSAEPGKSCVSLNPGKNAKWENLECVQKLGYICKKGNTTLNSFVIPSESDVPTHCPSQWWPYAGHCYKIHRDEKKIQRDALTTCRKEGGDLTSIHTIEELDFIISQLGYEPNDELWIGLNDIKIQMYFEWSDGTPVTFTKWLRGEPSHENNRQEDCVVMKGKDGYWADRGCEWPLGYICKMKSRSQGPEIVEVEKGCRKGWKKHHFYCYMIGHTLSTFAEANQTCNNENAYLTTIEDRYEQAFLTSFVGLRPEKYFWTGLSDIQTKGTFQWTIEEEVRFTHWNSDMPGRKPGCVAMRTGIAGGLWDVLKCDEKAKFVCKHWAEGVTHPPKPTTTPEPKCPEDWGASSRTSLCFKLYAKGKHEKKTWFESRDFCRALGGDLASINNKEEQQTIWRLITASGSYHKLFWLGLTYGSPSEGFTWSDGSPVSYENWAYGEPNNYQNVEYCGELKGDPTMSWNDINCEHLNNWICQIQKGQTPKPEPTPAPQDNPPVTEDGWVIYKDYQYYFSKEKETMDNARAFCKRNFGDLVSIQSESEKKFLWKYVNRNDAQSAYFIGLLISLDKKFAWMDGSKVDYVSWATGEPNFANEDENCVTMYSNSGFWNDINCGYPNAFICQRHNSSINATTVMPTMPSVPSGCKEGWNFYSNKCFKIFGFMEEERKNWQEARKACIGFGGNLVSIQNEKEQAFLTYHMKDSTFSAWTGLNDVNSEHTFLWTDGRGVHYTNWGKGYPGGRRSSLSYEDADCVVIIGGASNEAGKWMDDTCDSKRGYICQTRSDPSLTNPPATIQTDGFVKYGKSSYSLMRQKFQWHEAETYCKLHNSLIASILDPYSNAFAWLQMETSNERVWIALNSNLTDNQYTWTDKWRVRYTNWAADEPKLKSACVYLDLDGYWKTAHCNESFYFLCKRSDEIPATEPPQLPGRCPESDHTAWIPFHGHCYYIESSYTRNWGQASLECLRMGSSLVSIESAAESSFLSYRVEPLKSKTNFWIGLFRNVEGTWLWINNSPVSFVNWNTGDPSGERNDCVALHASSGFWSNIHCSSYKGYICKRPKIIDAKPTHELLTTKADTRKMDPSK
Q: Does B9 bind?
A: no binding

B10: Siglec-1 (receptor, UniProt Q9BZZ2 20-1641, looked up)
chain: SWGVSSPQDVQGVKGSCLLIPCIFSFPADVEVPDGITAIWYYDYSGQRQVVSHSADPKLVEARFRGRTEFMGNPEHRVCNLLLKDLQPEDSGSYNFRFEISEVNRWSDVKGTLVTVTEEPRVPTIASPVELLEGTEVDFNCSTPYVCLQEQVRLQWQGQDPARSVTFNSQKFEPTGVGHLETLHMAMSWQDHGRILRCQLSVANHRAQSEIHLQVKYAPKGVKILLSPSGRNILPGELVTLTCQVNSSYPAVSSIKWLKDGVRLQTKTGVLHLPQAAWSDAGVYTCQAENGVGSLVSPPISLHIFMAEVQVSPAGPILENQTVTLVCNTPNEAPSDLRYSWYKNHVLLEDAHSHTLRLHLATRADTGFYFCEVQNVHGSERSGPVSVVVNHPPLTPVLTAFLETQAGLVGILHCSVVSEPLATLVLSHGGHILASTSGDSDHSPRFSGTSGPNSLRLEIRDLEETDSGEYKCSATNSLGNATSTLDFHANAARLLISPAAEVVEGQAVTLSCRSGLSPTPDARFSWYLNGALLHEGPGSSLLLPAASSTDAGSYHCRARDGHSASGPSSPAVLTVLYPPRQPTFTTRLDLDAAGAGAGRRGLLLCRVDSDPPARLQLLHKDRVVATSLPSGGGCSTCGGCSPRMKVTKAPNLLRVEIHNPLLEEEGLYLCEASNALGNASTSATFNGQATVLAIAPSHTLQEGTEANLTCNVSREAAGSPANFSWFRNGVLWAQGPLETVTLLPVARTDAALYACRILTEAGAQLSTPVLLSVLYPPDRPKLSALLDMGQGHMALFICTVDSRPLALLALFHGEHLLATSLGPQVPSHGRFQAKAEANSLKLEVRELGLGDSGSYRCEATNVLGSSNTSLFFQVRGAWVQVSPSPELQEGQAVVLSCQVHTGVPEGTSYRWYRDGQPLQESTSATLRFAAITLTQAGAYHCQAQAPGSATTSLAAPISLHVSYAPRHVTLTTLMDTGPGRLGLLLCRVDSDPPAQLRLLHGDRLVASTLQGVGGPEGSSPRLHVAVAPNTLRLEIHGAMLEDEGVYICEASNTLGQASASADFDAQAVNVQVWPGATVREGQLVNLTCLVWTTHPAQLTYTWYQDGQQRLDAHSIPLPNVTVRDATSYRCGVGPPGRAPRLSRPITLDVLYAPRNLRLTYLLESHGGQLALVLCTVDSRPPAQLALSHAGRLLASSTAASVPNTLRLELRGPQPRDEGFYSCSARSPLGQANTSLELRLEGVRVILAPEAAVPEGAPITVTCADPAAHAPTLYTWYHNGRWLQEGPAASLSFLVATRAHAGAYSCQAQDAQGTRSSRPAALQVLYAPQDAVLSSFRDSRARSMAVIQCTVDSEPPAELALSHDGKVLATSSGVHSLASGTGHVQVARNALRLQVQDVPAGDDTYVCTAQNLLGSISTIGRLQVEGARVVAEPGLDVPEGAALNLSCRLLGGPGPVGNSTFAWFWNDRRLHAEPVPTLAFTHVARAQAGMYHCLAELPTGAAASAPVMLRVLYPPKTPTMMVFVEPEGGLRGILDCRVDSEPLASLTLHLGSRLVASSQPQGAPAEPHIHVLASPNALRVDIEALRPSDQGEYICSASNVLGSASTSTYFGVRALHRLHQFQQ
Q: Does B10 bind?
A: no binding
